Test results published in paper PMC9230395.

Target: T1, ZBP1 (recombinant Z-DNA-binding protein) (UniProt Q9H171)
T1 sequence: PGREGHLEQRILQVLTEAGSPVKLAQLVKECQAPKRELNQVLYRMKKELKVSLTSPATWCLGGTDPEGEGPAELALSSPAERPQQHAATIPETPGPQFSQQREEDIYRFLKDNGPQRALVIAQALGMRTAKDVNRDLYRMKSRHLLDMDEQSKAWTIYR
Test: BLI
Conditions: 10 mM MgCl2; kon 8.28e3 M-1 s-1, koff 4.68e-6 s-1; strands 1 and 2 circular; BLI: 1x PBS (10 mM phosphate) pH 7.2, 10 mM MgCl2, 0.1% BSA, 0.02% Tween-20, 25 C; EMSA: 10 mM phosphate pH 7.2, 10 mM MgCl2, 0.25 uM DNA, 6% PAGE (cc-91A) …

With “CGTGTGATATAGGTGAACGCGCGTGTGTGTATATGTGTGCGATCGTAGAACTTGTGAACCCTTATACCATGCACGATCGCACATTTCGCACA / GCACACATATACACACACGCGCGTTCACCTATATCACACGTGACTTGTAATTAGTAACTACCAACGTGCGTGTGTGTCAGTCAGCGAAATGTGCGATCGTGCATGGTATAAGGGTTCACAAGTTCTACGATC / TTTTTACCTCACTATACTTACATGTTTTTTGGTAGTTACTAATTACAAGT [Bait-cc-91A (cc-91A + lB50)]” the Kd was 0.566 nM.
